# Reference: the nanobody polyreactivity screen of Harvey et al. (2022)
# Assay: yeast display, Sf9 membrane polyspecificity reagent, FACS + sequencing; frameworks hold sequencing errors
# Summary of the method: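 In a synthetic yeast display library (Saccharomyces cerevisiae BJ5465), nanobody expression was induced with galactose for 36–48 hours. FACS gates were set low and high (top ~1%) using anti-HA fluorescence for expression and streptavidin fluorescence for binding of the Sf9 membrane reagent. Each polyreactivity label is drawn from the gate of origin.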
row,Sequence,polyreactivity (PSR sort gate)
1,QVQLVESGGGLVQAGGSLRLSCAASGSIFRYYAMGWYRQAPGKERELVAAISSNGGSTYYADSVKGRFTISRDNAKNTVYLQMNSLKPEDTAVYYCNAVKVGPYYFRSDYWGQGTQVTVSS,high polyreactivity
2,QVQLVESGGGLVQAGGSLRLSCAASGSIFRYYAMGWYRQAPGKERELVAAITSSAGSTYYADSVKGRFTISRDNAKNTVYLQMNSLKPEDTAVYYCNALVQGKEYYWGQGTQVTVSS,high polyreactivity
3,QVQLVESGGGLVQAGGSLRLSCAASGSIFRYYAMGWYRQAPGKERELVASISWSGTSTNYADSVKGRFTISRDNAKNTVYLQMNSLKPEDTAVYYCNKVRWGRYYTRYDYWGQGTQVTVSS,high polyreactivity
4,QVQLVESGGGLVQAGGSLRLSCAASGSIFRYYAMGWYRQAPGKERELVASITRRGGSTYYADSVKGRFTISRDNAKNTVYLQMNSLKPEDTAFYYCAAHKTYVREYYWGQGTQVTVSS,high polyreactivity
5,QVQLVESGGGLVQAGGSLRLSCAASGSIFRYYAMGWYRQAPGKERELVATISWSGGGTYYADSVKGRFTISRDTAKNTVYLLMNSLKPDVTGVYYCAAVGTVPRKQRYHSYIDYDYWGQGTQVTVSS,low polyreactivity
6,QVQLVESGGGLVQAGGSLRLSCAASGSIFRYYAMGWYRQAPGKERELVAVITGTGGSTYYADSVKGRFTISRDNAKNTVYLQMNSLKPEDTAVYYCNVYRPWGWFDYWGQGTQVTVSS,high polyreactivity
7,QVQLVESGGGLVQAGGSLRLSCAASGSIFRYYAMGWYRQAPRKERELVAAISSNGGSTSYADSVKGRFTISRDNAKNTVYLQMNSLIPEYTAVYYCNTQFRYPQKYDYWGQGTQVTVSS,high polyreactivity
8,QVQLVESGGGLVQAGGSLRLSCAASGSIFRYYDMGWYRQAPGKERELVAAISTSGVRTNYADSVKGRFTISRDNAKNTVYLQMNSLKPEDTAVYYCAARSQIYYRYRSYGYWGQGTQVTVSS,high polyreactivity
9,QVQLVESGGGLVQAGGSLRLSCAASGSIFRYYTMGWYRQAPGKERELVASISRGGNTYYADSVKGRFTISRDNAKNTVYLQMNSLKPEDTAVYYCNVRLSYSYISQSDWNFDYWGQGTQVTVSS,low polyreactivity
10,QVQLVESGGGLVQAGGSLRLSCAASGSIFRYYVMGWSRQAPGKERELVASISYSVGRTYYADSVKGRFTISRDNAKNTVYLQMNCLKPEDTAVYYCAADRYWPYYSAYYTSYRMDYWGQGTQVTVSS,high polyreactivity
11,QVQLVESGGGLVQAGGSLRLSCAASGSIFSAYAMGWYRQAPGKERELVAAISSRGSRTYYAYSVKGRFTISRDYAKNSVYLQMNSLKPEDTAVYYCAADPFSSYYKMDYWGQGTQVTVSS,high polyreactivity
12,QVQLVESGGGLVQAGGSLRLSCAASGSIFSAYVMGWYRQAPGKERELVAAINRGGNTYYADSVKGRFTISRDNAKNTVYLQMNSLKPEDTAVYYCNAQWYYLRYRYDYWGQGTQVTVSS,high polyreactivity
13,QVQLVESGGGLVQAGGSLRLSCAASGSIFSAYVMGWYRQAPGKERELVAAITRSGGSTYYADSVKGRFTISRDNAKNTVYLQMNSLKPEDTAVYYCAVDYLLHYYSYIEDYWGQGTQVTVSS,low polyreactivity
14,QVQLVESGGGLVQAGGSLRLSCAASGSIFSCYTMGWYRQAPGKERELVAASTTYADSVKGRFTISRDNAKNTVYLQMNSLKPEDTAVSYCATRHPARRDYWGQGTQVTVSS,low polyreactivity
15,QVQLVESGGGLVQAGGSLRLSCAASGSIFSENAMGWYRQAPGKERELVAAITGGASTNYADSVKGRFTISRDNAKNTVYLQMNSLKPEDNAVYYCNTGGPRGTTYDYWGQGTQVTVSS,low polyreactivity
16,QVQLVESGGGLVQAGGSLRLSCAASGSIFSEYAMGWYRQAPGKERELVAAISKSTGRTYYADSVKGRFTISRDNAKNTVYLQMNSLKPEDTAVYYCNAVRRAFIASYDYWGQGTQVTVSS,high polyreactivity
17,QVQLVESGGGLVQAGGSLRLSCAASGSIFSFYAMGWYRQAPGKEREFVAAITISDDSTYYADTVKGRFTISRDNAKNTVYLQMNSLNPEDTAVYYCNDRYLSWYFKYLYDYWGQGTQVTVSS,low polyreactivity
18,QVQLVESGGGLVQAGGSLRLSCAASGSIFSGNAMGWYRQAPGKERELVAAITSSGGSTYYADSVKGRFTISRDNAKNTVYLQMNSLKPEDTAVYYCAKDYYSKHFPIYDYWGQGTQVTVSS,low polyreactivity
19,QVQLVESGGGLVQAGGSLRLSCAASGSIFSGNAMGWYRQAPGKERELVADITFSGSSTYADSVKGRFTISRDNAKNTVYLQMNSLKPEDTAVYYCAKKRPGFLRYGSIGEFQYDYWGQGTQVTVSS,low polyreactivity
20,QVQLVESGGGLVQAGGSLRLSCAASGSIFSGNEMGWYRQAPGKDSELVATISWSGGSTNYADSVKGGFTISRDNAKNTVYLQMNSLKPEDTSVYYCAAVPGWVRQADGWVLSLLDYWGQGTQVTVSS,low polyreactivity
21,QVQLVESGGGLVQAGGSLRLSCAASGSIFSGNTMGCYRQAPGKERELVAAISGRGSNTYYADSVKGRFTISRDNAKNTVYLQMNSLKPEDTAVYYCAGPWVVRRTAYDYWGQGTQVTVSS,high polyreactivity
22,QVQLVESGGGLVQAGGSLRLSCAASGSIFSGYAMGWYRQAPGKERELVAAITWRAASTYYADSVKGRFTISRDNAKNTVYLQMNSLKPEDTAVYYCAKEGWPKPAFYYWGQGTQVTVSS,low polyreactivity
